Test results taken from the supplement of paper PMC5998384.

Key:
[1] = test system: HeLa Kyoto; test: solubility in G1/S (NP-40 vs SDS abundance) (log2 ratio); higher = more soluble; details: cell cycle stage: G1/S
[2] = test system: HeLa Kyoto; test: thermal stability score vs G1/S (z-score of summed log2 fold changes over temperatures); higher = more thermally stable than in G1/S
[3] = test system: HeLa Kyoto; test: melting temperature (median over replicates), in situ; higher = more thermally stable
[4] = test system: HeLa Kyoto; test: solubility change mitosis vs G1/S (difference of NP-40 vs SDS log2 ratios) (log2 ratio difference); higher = more soluble in mitosis
[5] = cell cycle stage: early G1 (4.5 h after nocodazole release)
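For melting temperature (median over replicates), in situ in this document: HeLa Kyoto cells synchronized by double thymidine or nocodazole block, proteins quantified by TMT10plex mass spectrometry, three independent biological replicates.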
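For solubility change mitosis vs G1/S (difference of NP-40 vs SDS log2 ratios) in this document: synchronized HeLa Kyoto cells (double thymidine block for G1/S, nocodazole release for mitosis), protein amounts in NP-40 versus SDS lysates quantified by mass spectrometry, three biological replicates.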
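For solubility in G1/S (NP-40 vs SDS abundance) in this document: HeLa Kyoto cells arrested at G1/S by double thymidine block, proteins quantified by TMT10plex mass spectrometry in mild NP-40 versus SDS extracts, three biological replicates.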
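For thermal stability score vs G1/S (z-score of summed log2 fold changes over temperatures) in this document: synchronized HeLa Kyoto cells, proteins quantified by TMT10plex mass spectrometry, three biological replicates, mitosis taken 0.5 h after nocodazole release, G1/S directly after double thymidine block.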

Row | Sequence | solubility in G1/S (log2) [1] | thermal stability score [2, 5] | thermal stability score ([2]; cell cycle stage: mitosis) | melting temperature ([3]; cell cycle stage: G1/S) | melting temperature ([3]; cell cycle stage: mitosis) | solubility change mitosis (log2) [4]
1 | MPQYQTWEEFSRAAEKLYLADPMKARVVLKYRHSDGNLCVKVTDDLVCLVYKTDQAQDVKKIEKFHSQLMRLMVAKEARNVTMETE [SRP9] | -0.607 | -2.84 | -5.71 | 53.5 °C | 52.1 °C | 0.394
2 | MPRARKGNTLRKGGQRRGGGARSSAQADSGSSDDEAASEARSTASECPSLLSTTAEDSLGGDVVDEQGQQEDLEEKLKEYVDCLTDKSAKTRQGALESLRLALASRLLPDFLLERRLTLADALEKCLKKGKGEEQALAAAVLGLLCVQLGPGPKGEELFHSLQPLLVSVLSDSTASPAARLHCASALGLGCYVAAADIQDLVSCLACLESVFSRFYGLGGSSTSPVVPASLHGLLSAALQAWALLLTICPSTQISHILDRQLPRLPQLLSSESVNLRIAAGETIALLFELARDLEEEFVYEDMEALCSVLRTLATDSNKYRAKADRRRQRSTFRAVLHSVEGGECEEEIVRFGFEVLYMDSWARHRIYAAFKEVLGSGMHHHLQNNELLRDIFGLGPVLLLDATALKACKVPRFEKHLYNAAAFKARTKARSRVRDKRADIL [IFRD2] | -0.734 | -2.6 | -1.01 | 56.3 °C | 54.5 °C | 0.211
3 | MPRDNMASLIQRIARQACLTFRGSGGGRGASDRDAASGPEAPMQPGFPENLSKLKSLLTQLRAEDLNIAPRKATLQPLPPNLPPVTYMHIYETDGFSLGVFLLKSGTSIPLHDHPGMHGMLKVLYGTVRISCMDKLDAGGGQRPRALPPEQQFEPPLQPREREAVRPGVLRSRAEYTEASGPCILTPHRDNLHQIDAVEGPAAFLDILAPPYDPDDGRDCHYYRVLEPVRPKEASSSACDLPREVWLLETPQADDFWCEGEPYPGPKVFP [ADO] | 0.474 | -2.72 | -3.58 | 54.1 °C | 53.7 °C | 0.0512
4 | MPRPGSAQRWAAVAGRWGCRLLALLLLVPGPGGASEITFELPDNAKQCFYEDIAQGTKCTLEFQVITGGHYDVDCRLEDPDGKVLYKEMKKQYDSFTFTASKNGTYKFCFSNEFSTFTHKTVYFDFQVGEDPPLFPSENRVSALTQMESACVSIHEALKSVIDYQTHFRLREAQGRSRAEDLNTRVAYWSVGEALILLVVSIGQVFLLKSFFSDKRTTTTRVGS [TMED7] | -0.0739 | 2.43 | 0.528 | 57.2 °C | 56.4 °C | -0.174
5 | MPRRKKKVKEVSESRNLEKKDVETTSSVSVKRKRRLEDAFIVISDSDGEEPKEENGLQKTKTKQSNRAKCLAKRKIAQMTEEEQFALALKMSEQEAREVNSQEEEEEELLRKAIAESLNSCRPSDASATRSRPLATGPSSQSHQEKTTDSGLTEGIWQLVPPSLFKGSHISQGNEAEEREEPWDHTEKTEEEPVSGSSGSWDQSSQPVFENVNVKSFDRCTGHSAEHTQCGKPQESTGRGSAFLKAVQGSGDTSRHCLPTLADAKGLQDTGGTVNYFWGIPFCPDGVDPNQYTKVILCQLEVYQKSLKMAQRQLLNKKGFGEPVLPRPPSLIQNECGQGEQASEKNECISEDMGDEDKEERQESRASDWHSKTKDFQESSIKSLKEKLLLEEEPTTSHGQSSQGIVEETSEEGNSVPASQSVAALTSKRSLVLMPESSAEEITVCPETQLSSSETFDLEREVSPGSRDILDGVRIIMADKEVGNKEDAEKEVAISTFSSSNQVSCPLCDQCFPPTKIERHAMYCNGLMEEDTVLTRRQKEAKTKSDSGTAAQTSLDIDKNEKCYLCKSLVPFREYQCHVDSCLQLAKADQGDGPEGSGRACSTVEGKWQQRLKNPKEKGHSEGRLLSFLEQSEHKTSDADIKSSETGAFRVPSPGMEEAGCSREMQSSFTRRDLNESPVKSFVSISEATDCLVDFKKQVTVQPGSRTRTKAGRGRRRKF [UIMC1] | -0.219 | 1.12 | 1.21 | 51.5 °C | 52.5 °C | 0.107
6 | MPSAKQRGSKGGHGAASPSEKGAHPSGGADDVAKKPPPAPQQPPPPPAPHPQQHPQQHPQNQAHGKGGHRGGGGGGGKSSSSSSASAAAAAAAASSSASCSRRLGRALNFLFYLALVAAAAFSGWCVHHVLEEVQQVRRSHQDFSRQREELGQGLQGVEQKVQSLQATFGTFESILRSSQHKQDLTEKAVKQGESEVSRISEVLQKLQNEILKDLSDGIHVVKDARERDFTSLENTVEERLTELTKSINDNIAIFTEVQKRSQKEINDMKAKVASLEESEGNKQDLKALKEAVKEIQTSAKSREWDMEALRSTLQTMESDIYTEVRELVSLKQEQQAFKEAADTERLALQALTEKLLRSEESVSRLPEEIRRLEEELRQLKSDSHGPKEDGGFRHSEAFEALQQKSQGLDSRLQHVEDGVLSMQVASARQTESLESLLSKSQEHEQRLAALQGRLEGLGSSEADQDGLASTVRSLGETQLVLYGDVEELKRSVGELPSTVESLQKVQEQVHTLLSQDQAQAARLPPQDFLDRLSSLDNLKASVSQVEADLKMLRTAVDSLVAYSVKIETNENNLESAKGLLDDLRNDLDRLFVKVEKIHEKV [CKAP4] | 0.635 | 5.49 | 6.55 | 52 °C | 52.4 °C | 0.148
